Like-named read-outs stand apart in the source and are kept apart here.
Columns and labels:
Assay in all cases: EMSA
rDDX1 (WT) [1] = molecular target: T1, rDDX1 (WT) (human, UniProt Q92499 1-728)
T1 sequence: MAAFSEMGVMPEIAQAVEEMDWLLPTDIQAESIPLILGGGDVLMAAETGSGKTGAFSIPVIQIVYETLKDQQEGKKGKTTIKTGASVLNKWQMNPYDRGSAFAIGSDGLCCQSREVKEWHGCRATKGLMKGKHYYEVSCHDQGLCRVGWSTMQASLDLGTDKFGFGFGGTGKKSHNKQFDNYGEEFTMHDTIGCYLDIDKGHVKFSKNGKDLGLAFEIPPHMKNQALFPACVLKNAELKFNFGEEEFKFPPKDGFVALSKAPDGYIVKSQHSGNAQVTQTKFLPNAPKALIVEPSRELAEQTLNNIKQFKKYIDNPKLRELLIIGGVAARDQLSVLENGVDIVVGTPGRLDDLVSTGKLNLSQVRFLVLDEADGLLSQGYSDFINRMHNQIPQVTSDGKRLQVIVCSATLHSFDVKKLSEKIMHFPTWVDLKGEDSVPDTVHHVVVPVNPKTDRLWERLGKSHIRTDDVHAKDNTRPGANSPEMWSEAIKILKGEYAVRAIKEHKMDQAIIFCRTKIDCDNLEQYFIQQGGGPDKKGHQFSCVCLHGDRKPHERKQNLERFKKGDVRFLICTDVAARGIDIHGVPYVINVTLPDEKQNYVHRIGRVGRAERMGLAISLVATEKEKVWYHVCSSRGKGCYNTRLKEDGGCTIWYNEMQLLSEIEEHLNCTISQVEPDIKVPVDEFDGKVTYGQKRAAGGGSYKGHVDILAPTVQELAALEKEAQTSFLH

rDDX1-K52A [2] = molecular target: T2, rDDX1-K52A (human, UniProt Q92499 1-728, K52A)
T2 sequence: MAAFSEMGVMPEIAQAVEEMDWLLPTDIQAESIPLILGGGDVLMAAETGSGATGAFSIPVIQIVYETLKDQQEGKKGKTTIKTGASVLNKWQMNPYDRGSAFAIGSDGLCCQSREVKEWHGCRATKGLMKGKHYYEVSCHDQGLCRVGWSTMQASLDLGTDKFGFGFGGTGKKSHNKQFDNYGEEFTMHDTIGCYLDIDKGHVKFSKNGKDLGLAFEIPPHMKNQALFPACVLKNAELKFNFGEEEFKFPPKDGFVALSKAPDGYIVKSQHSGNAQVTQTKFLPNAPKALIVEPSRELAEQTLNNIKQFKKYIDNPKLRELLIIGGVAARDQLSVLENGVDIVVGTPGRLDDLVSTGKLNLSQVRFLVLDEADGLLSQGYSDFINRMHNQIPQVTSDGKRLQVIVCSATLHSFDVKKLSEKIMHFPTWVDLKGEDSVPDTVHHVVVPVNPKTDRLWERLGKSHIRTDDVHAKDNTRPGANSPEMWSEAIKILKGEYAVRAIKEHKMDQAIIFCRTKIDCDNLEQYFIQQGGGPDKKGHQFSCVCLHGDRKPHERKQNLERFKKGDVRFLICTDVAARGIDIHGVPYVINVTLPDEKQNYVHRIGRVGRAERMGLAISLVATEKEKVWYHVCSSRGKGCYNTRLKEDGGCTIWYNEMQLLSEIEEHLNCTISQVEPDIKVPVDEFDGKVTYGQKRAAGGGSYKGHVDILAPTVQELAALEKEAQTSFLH

rDDX1 (WT) [3] = molecular target: T1, rDDX1 (WT); remark: listed apart in the source
rDDX1-K52A [4] = molecular target: T2, rDDX1-K52A; remark: listed apart in the source

GAGCUGCGCUGAGCUGCGCUGAGCUGCGCUGAGCUGCGCU (ssRNA) [Sμ4Gmut RNA 32P]
binding result (rDDX1 (WT) [1]): no binding

GAGCUGGGGUGAGCUGGGGUGAGCUGGGGUGAGCUGGGGU (structured_RNA) [Sμ4G RNA 32P]
binding result (rDDX1 (WT) [1]): binds
binding result (rDDX1-K52A [2]): binds

ATCGGAATGTATGAGAATAGAAGAGATAATGAATAATAGAA (ssDNA) [Single-stranded DNA]
binding result (rDDX1 (WT) [3]): no binding
binding result (rDDX1-K52A [4]): no binding

From article PMC5971202
